System: N[C@@H](CC=O)C(=O)O
Assay: purified protein, by the assay type
Settings: other: pH 8.0

Question: H. pylori Asd (Helicobacter pylori J99) was tested. Which Km did it give?
Answer: 54 µM

— patent US20040052799A1, “Nucleic acid and amino acid sequences relating to Helicobacter pylori for diagnostics and therapeutics” (Astra Aktiebolag, priority 1996, published 2004)
